Reference: US20140378372A1 (SERPIN PHARMA, published 2014)

Biological target: hERG (channel tested in the hERG FastPatch assay) (UniProt Q12809 1-1159)
Test: cell-based or functional assay

Chain of hERG (channel tested in the hERG FastPatch assay) (Q12809 whole entry): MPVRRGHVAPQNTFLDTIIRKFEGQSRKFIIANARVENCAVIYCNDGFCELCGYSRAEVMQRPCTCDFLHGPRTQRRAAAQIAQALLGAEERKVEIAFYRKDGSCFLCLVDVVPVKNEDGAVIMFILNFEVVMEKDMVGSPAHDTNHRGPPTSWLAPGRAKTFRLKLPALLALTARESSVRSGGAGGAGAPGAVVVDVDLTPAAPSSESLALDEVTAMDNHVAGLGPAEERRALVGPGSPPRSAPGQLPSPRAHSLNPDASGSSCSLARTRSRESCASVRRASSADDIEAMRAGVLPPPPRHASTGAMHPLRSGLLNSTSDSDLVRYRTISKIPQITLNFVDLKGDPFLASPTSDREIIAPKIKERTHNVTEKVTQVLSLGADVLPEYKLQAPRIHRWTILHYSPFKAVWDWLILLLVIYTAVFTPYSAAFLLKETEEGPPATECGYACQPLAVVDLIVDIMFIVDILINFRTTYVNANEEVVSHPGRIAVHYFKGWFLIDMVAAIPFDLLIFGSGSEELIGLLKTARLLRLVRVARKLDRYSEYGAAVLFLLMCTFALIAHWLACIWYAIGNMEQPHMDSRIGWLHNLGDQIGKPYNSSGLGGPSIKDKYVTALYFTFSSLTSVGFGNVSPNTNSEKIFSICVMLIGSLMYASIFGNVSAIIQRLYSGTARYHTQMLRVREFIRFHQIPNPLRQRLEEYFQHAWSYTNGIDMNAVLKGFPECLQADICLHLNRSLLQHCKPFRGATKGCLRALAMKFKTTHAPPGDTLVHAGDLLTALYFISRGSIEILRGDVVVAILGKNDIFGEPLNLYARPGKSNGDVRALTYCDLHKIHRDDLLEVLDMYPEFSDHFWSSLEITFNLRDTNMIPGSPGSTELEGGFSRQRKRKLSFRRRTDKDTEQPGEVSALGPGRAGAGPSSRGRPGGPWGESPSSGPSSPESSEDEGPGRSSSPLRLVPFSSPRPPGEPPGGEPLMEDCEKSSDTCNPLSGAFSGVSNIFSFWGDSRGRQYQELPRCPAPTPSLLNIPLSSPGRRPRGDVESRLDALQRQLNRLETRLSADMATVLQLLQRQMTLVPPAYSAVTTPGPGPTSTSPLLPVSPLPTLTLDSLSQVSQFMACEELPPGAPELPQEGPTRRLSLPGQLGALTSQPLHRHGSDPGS

VKFNKPFVFLMIEQNTK [SP16 peptide (C36 Core sequence, long; derived from human alpha-1-antitrypsin)] was tested, and the “IC50 value (hERG FastPatch assay, test conc 0.008-25 uM)” value was > 25 µM.
